Experimental data from US20210332115A1 (Sanofi, published 2021).

T1: aCls (Comptech A104) (UniProt P09871 16-688)
T1 construct: the active enzyme is a two-chain form of this precursor; also called aC1s
T1 sequence (looked up): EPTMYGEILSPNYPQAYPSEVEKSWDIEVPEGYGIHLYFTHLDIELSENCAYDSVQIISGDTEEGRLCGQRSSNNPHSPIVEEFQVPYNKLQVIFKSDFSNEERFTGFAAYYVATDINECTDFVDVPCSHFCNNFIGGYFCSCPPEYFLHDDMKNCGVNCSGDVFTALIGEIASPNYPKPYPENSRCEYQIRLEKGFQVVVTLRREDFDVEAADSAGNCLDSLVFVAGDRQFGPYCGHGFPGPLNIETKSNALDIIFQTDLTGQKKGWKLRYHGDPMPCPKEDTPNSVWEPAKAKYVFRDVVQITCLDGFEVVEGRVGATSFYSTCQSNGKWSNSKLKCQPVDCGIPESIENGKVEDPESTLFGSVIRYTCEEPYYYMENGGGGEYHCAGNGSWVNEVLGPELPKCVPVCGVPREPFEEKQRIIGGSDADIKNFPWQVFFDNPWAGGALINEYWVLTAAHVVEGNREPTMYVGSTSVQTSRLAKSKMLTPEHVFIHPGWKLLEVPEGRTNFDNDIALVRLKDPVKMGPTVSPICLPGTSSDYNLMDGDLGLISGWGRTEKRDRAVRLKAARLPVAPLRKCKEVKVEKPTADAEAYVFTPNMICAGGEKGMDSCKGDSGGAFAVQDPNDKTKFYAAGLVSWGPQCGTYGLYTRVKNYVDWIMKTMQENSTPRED

T2: C2a (prepared from C2) (UniProt P06681 244-752, limits assumed)
T2 construct: domain: C2a
T2 sequence (looked up): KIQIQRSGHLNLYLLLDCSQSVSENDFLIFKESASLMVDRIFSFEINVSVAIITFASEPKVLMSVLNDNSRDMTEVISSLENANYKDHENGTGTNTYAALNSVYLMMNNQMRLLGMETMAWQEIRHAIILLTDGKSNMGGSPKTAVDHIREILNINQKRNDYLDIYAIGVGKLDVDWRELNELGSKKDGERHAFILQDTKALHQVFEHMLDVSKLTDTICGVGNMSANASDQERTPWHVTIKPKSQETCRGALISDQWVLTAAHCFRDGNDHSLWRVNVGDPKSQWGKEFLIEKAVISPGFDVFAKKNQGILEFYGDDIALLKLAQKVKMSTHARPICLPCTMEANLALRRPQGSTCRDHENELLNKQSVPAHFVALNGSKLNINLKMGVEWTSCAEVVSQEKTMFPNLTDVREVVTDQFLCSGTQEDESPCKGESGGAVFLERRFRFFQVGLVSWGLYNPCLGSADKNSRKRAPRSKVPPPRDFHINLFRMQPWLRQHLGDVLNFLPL

T3: C1r (Comptech A102) (UniProt P00736 18-705)
T3 sequence (looked up): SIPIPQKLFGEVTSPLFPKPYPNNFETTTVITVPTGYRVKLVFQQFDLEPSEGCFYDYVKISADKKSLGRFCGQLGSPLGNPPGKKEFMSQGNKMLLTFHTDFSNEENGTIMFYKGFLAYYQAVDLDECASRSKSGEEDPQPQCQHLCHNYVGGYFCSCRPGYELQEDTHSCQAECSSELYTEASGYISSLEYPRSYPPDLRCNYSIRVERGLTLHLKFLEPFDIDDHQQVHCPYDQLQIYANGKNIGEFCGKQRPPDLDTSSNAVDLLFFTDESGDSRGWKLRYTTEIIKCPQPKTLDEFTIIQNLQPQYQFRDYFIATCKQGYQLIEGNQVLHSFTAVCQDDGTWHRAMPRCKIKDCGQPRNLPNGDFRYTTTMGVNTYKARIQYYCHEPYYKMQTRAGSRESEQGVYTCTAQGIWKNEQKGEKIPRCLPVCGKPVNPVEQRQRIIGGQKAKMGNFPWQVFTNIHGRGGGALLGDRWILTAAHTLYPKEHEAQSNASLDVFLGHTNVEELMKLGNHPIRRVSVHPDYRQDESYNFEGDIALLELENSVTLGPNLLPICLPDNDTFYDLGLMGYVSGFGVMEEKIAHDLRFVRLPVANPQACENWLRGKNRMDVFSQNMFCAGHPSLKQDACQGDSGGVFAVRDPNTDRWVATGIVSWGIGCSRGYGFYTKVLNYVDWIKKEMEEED


Experiments:
[1] = target: thrombin (EMD Millipore 605195) (UniProt P00734 328-622); assay: ELISA, target coated at 2.5 µg/mL, biotinylated antibody titrated, streptavidin-HRP, OD450 background subtracted
Description: (§1) Briefly, complement and plasma proteins were coated onto ELISA plates at 2. 5 μg/mL in PBS overnight at 4° C. Plates were then blocked with Casein for 1 hour at room temperature and washed four times with 1× DPBS/0.05% Tween-20 followed by a single wash with 1× DPBS. Serial dilutions starting at 50 μg/ml of biotinylated chimeric parent or VH6/VK7-IgG4v2 were added to the plate in PBS/0.1%casein/0.1%Tween-20 and incubated for 2 hours at room temperature. Plates were washed as described and a 1:10,000 dilution of streptavidin-HRP (Southern Biotech 7100-05) in PBS/0.1% casein/0.1% Tween-20 was added to the plate and incubated for 30 minutes at room temperature. Plates were again washed and Ultra TMP ELISA (Thermo 34028) was added to the plate for 1 minute, followed by stop solution). OD 450 nm was read in a plate reader and background at 620 nm was subtracted. Both the chimeric parent (FIG. 8A) and the humanized variant (FIG. 8B) show complete specificity for factor Bb.

aCls (Comptech A104) = target: T1, aCls (Comptech A104); assay: as above
Description: as §1

C2a (prepared from C2) = target: T2, C2a (prepared from C2); assay: as above
Description: as §1

[2] = target: factor D (Competech A136) (UniProt P00746 26-253); assay: as above
factor D (Competech A136), sequence (P00746 26-253 limits assumed): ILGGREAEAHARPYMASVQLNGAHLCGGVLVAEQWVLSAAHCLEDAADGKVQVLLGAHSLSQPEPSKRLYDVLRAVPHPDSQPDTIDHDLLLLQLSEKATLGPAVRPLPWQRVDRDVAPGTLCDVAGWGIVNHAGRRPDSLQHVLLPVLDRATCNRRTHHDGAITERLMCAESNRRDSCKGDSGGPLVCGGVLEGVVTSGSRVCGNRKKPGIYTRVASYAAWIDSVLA
Description: as §1

C1r (Comptech A102) = target: T3, C1r (Comptech A102); assay: as above
Description: as §1

[3] = target: T4, Homo sapiens factor Bb protein (human, UniProt P00751 260-764); assay: ELISA, factor Bb coated at 2.5 µg/mL, biotinylated antibody titrated, streptavidin-HRP, OD450 background subtracted
T4 construct: Bought from CompTech (A155); also called complement factor Bb; human factor Bb
T4 sequence (P00751 260-764 limits assumed): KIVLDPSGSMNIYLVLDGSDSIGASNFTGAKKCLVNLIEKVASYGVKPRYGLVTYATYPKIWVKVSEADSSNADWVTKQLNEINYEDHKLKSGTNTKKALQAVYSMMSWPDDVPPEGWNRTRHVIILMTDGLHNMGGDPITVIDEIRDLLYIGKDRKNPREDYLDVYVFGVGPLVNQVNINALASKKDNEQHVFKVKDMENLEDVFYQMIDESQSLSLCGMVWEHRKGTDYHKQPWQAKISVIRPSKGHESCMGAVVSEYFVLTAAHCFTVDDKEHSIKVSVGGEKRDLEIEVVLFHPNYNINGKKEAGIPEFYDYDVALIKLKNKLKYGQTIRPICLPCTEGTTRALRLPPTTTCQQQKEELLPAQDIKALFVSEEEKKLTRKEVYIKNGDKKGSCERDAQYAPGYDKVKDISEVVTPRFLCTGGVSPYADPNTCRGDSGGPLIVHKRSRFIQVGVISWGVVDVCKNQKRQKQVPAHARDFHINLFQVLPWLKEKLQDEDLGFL
Description: as §1

EC50 (read off the curve) [3]	Binder	binding result [1]	binding result (aCls (Comptech A104))	binding result (C2a (prepared from C2))	binding result [2]	binding result (C1r (Comptech A102))
~0.01 µg/mL	VH0/Vκ0 (Chimeric) (antibody, V domains shown, also called chimeric antibody) VH: EVQLVESGGALVKPGGSLKLSCAASGFTFSNYAMSWVRQTPEKRLEWVATISNRGSYTYYPDSVKGRFTISRDNAKNTLYLQMSSLRSEDTALYYCARERPMDYWGQGTSVTVSS VL: DIVMTQSHKFMSTSVGDRVSITCKASQDVGTAVAWYQQKPGQSPKLLIYWASTRHTGVPDRFTGSGSGTDFTLTITNVQSEDLAVYFCHQHSSNPLTFGAGTKLELK	no binding (tested: about 10^5 ng/mL (log 5 on the axis))	no binding (tested: about 10^5 ng/mL (log 5 on the axis))	no binding (tested: about 10^5 ng/mL (log 5 on the axis))	no binding (tested: about 10^5 ng/mL (log 5 on the axis))	no binding (tested: about 10^5 ng/mL (log 5 on the axis))
~0.02 µg/mL	VH6/Vκ7-IgG4v2 (antibody, also called VH6/VK7-IgG4v2; VH6/VK7-IgG4v2_HEK) heavy: not shown light: DIQMTQSPSTLSASVGDRVTITCKASQDVGTAVAWYQQKPGKAPKLLIYWASTRHTGVPDRFSGSGSGTDFTLTISSLQAEDFAVYFCHQHSSNPLTFGQGTKLEIKRTVAAPSVFIFPPSDEQLKSGTASVVCLLNNFYPREAKVQWKVDNALQSGNSQESVTEQDSKDSTYSLSSTLTLSKADYEKHKVYACEVTHQGLSSPVTKSFNRGEC	no binding	no binding	no binding	no binding	no binding
